Reference: paper PMC7666168

Biological target: ΔN−3 gp17.1 (bacteriophage SPP1) (UniProt O48449)
Assay: cryo-EM structure; helical reconstruction of polymerized ΔN−3 gp17.1 tubes, 20 mM Tris-HCl pH 7.4 in place of phosphate; the most straight tubes selected; C6, rise 38.46 Å, twist 21.89°; atomic model by hybrid calculation (ISD) with solid-state NMR restraints from gp17.1 tubes

- stoichiometry N: 6
Substance: ΔN−3 gp17.1 (from UniProt O48449 1-264) (natural protein)
